Each block holds one binder with its values, some of them ahead of it.
Legend:
[1] = molecular target: T1, Mus musculus AXL (p33-HAMm-AXL) (human (Homo sapiens) AXL with mouse …, UniProt Q00993 1-888 (mouse entry)); assay: flow cytometry, transfected HEK293F cells
T1 construct: also called hsAXL-mmECD
T1 chain: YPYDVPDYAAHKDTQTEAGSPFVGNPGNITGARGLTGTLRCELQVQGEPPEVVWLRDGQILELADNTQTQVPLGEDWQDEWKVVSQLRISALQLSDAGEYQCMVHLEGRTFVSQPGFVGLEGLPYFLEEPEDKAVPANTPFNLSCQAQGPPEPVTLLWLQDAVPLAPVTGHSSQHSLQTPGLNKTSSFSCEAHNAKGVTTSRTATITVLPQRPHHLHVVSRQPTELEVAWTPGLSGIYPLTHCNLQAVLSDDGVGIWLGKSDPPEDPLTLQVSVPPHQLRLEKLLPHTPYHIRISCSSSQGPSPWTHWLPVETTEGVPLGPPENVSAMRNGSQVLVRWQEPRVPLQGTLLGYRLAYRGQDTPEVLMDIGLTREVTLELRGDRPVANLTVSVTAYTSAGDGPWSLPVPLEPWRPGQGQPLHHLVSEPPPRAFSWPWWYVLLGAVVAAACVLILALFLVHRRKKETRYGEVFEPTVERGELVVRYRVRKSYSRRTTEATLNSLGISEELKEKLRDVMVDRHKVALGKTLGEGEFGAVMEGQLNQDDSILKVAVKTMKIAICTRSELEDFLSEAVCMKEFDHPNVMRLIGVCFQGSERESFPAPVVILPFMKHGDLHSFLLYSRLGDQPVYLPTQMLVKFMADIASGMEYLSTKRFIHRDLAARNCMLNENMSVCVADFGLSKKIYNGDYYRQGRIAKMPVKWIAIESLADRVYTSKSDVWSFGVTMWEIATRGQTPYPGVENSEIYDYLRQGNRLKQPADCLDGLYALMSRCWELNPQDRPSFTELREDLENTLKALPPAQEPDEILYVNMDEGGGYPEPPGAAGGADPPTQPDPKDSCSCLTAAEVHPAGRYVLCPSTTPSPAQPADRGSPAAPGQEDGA

[2] = molecular target: T2, Homo sapiens AXL - Mus musculus FN2 domain (p33-AXL-mFN2) (human (Homo sapiens) AXL with mouse …, UniProt P30530 26-894); assay: flow cytometry, transfected HEK293F cells
T2 construct: also called hsAXL-mmFN2
T2 chain: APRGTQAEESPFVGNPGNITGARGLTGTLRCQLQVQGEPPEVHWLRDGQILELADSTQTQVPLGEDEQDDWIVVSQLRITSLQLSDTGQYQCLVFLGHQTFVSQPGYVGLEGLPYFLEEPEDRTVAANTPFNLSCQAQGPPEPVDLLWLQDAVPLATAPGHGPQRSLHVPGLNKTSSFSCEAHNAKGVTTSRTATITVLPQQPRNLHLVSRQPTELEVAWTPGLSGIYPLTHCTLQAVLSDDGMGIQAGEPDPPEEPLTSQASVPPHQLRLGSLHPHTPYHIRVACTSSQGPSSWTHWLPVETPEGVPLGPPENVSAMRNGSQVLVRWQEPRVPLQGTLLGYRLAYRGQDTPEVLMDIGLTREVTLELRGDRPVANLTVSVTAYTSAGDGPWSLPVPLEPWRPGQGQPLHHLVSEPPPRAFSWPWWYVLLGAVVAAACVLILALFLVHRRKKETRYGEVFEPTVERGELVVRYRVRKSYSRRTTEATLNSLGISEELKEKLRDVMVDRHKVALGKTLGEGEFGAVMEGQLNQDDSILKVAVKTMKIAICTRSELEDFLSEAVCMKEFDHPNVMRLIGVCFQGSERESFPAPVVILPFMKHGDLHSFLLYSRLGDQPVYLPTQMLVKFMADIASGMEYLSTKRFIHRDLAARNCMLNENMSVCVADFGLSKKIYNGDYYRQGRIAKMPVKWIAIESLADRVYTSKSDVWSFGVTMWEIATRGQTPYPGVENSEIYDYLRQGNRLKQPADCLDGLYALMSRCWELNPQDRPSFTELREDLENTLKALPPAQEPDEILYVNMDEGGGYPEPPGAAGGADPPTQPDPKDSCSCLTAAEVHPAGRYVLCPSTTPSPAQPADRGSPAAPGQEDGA

- binding result [1]: no binding (tested: 1 µg/mL)
B1: IgG1-AXL-137 (antibody, V domains shown)
VH: QVQLVQSGAEVKKPGSSVKVSCKASGGTFSRYAISWVRQAPGQGLEWMGRIIPIVGIANYAQKFQGRVTLTADKSTSTAYMELSSLRSEDTAVYYCAREAGYSSSWYAEYFQHWGQGTLVTVSS
VL: not shown
notes: expressed as IgG1,κ

- binding result [1]: no binding (tested: 1 µg/mL)
B2: IgG1-AXL-061 (antibody, V domains shown)
VH: QVQLVQSGAEVKKPGASVKVSCKASGYAFTGYGISWVRQAPGQGLEWIGWISAYNGNTNYVQNLQDRVTMTTDTSTSTAYMELRSLRSDDTAVYYCARDHISMLRGIIIRNYWGQGTLVTVSS
VL: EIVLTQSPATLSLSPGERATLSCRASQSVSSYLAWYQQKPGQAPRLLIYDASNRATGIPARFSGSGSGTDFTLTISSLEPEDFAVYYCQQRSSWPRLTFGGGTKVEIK
notes: expressed as IgG1,κ

- binding result [1]: no binding (tested: 1 µg/mL)
B3: IgG1-AXL-613 (antibody, V domains shown)
VH: QVQLVQSGAEVKKPGSSVKVSCKASGGTFSSYAINWMRQAPGQGLEWMGRIIPIFGIVNYAQKFQGRVTLTADKSTSTAYMELSSLRSEDTAVYYCARRGNYYGSGSPDVFDIWGQGTMVTVSS
VL: not shown
notes: expressed as IgG1,κ

- binding result [2]: no binding (tested: 1 µg/mL)
B4: IgG1-AXL-726 (antibody, V domains shown)
VH: QVQLQQWGAGLLKPSETLSLTCAIDGGSFSGYYWSWIRQPPGKGLEWIGEISHSGRTNYNPSLKSRVTISIDTSKNQFSLKLSSVAAADTAVYYCARFITMIRGAIITHFDYWGQGALVTVSS
VL: DIQMTQSPSSLSASVGDRVTITCRASQGISSWLAWYQQKPEKAPKSLIYAASSLQSGVPSRFSGSGSGTDFTLTISSLQPEDFATYYCQQYHSYPYTFGQGTKLEIK
notes: expressed as IgG1,κ

From US20230321261A1 (published 2023)
